Test results published in patent publication US20090274696A1, “METHODS FOR TREATING INFLAMMATION” (WYETH, priority 2008, published 2009).

Key:
[1] = tested on: airway epithelium of cultured trachea; assay: Histological examination of tracheal rings and airway epithelium; assay type: cell-based, mouse; conditions: cultured overnight with FIZZ1 100 nM or LPS 0.1 ng/mL
Protocol: Histological examination of the structure of the airway and the status of the airway epithelial layer was performed in whole/sectional fresh trachea and as well as trachea cultured overnight with and without 100 nM FIZZ1. To understand the role of airway epithelium in regulating contractility of TSM, we measured the contractile response of tracheal rings after the epithelium was mechanically removed. Briefly, airway epithelial cells were removed by gently rubbing the intraluminal surface with polyethylene tubing (Becton Dickinson & Company, MD USA) connected to a Precision Glide needle (30G1/2) followed by perfusion with 1.0 ml air bubbles and then 1.0 ml K-H solution (re). All of the experimental tracheas were stained with H & E solution (CAT hematoxylin, Edgar Degas Eosin Working Solution, Biocare Medical, Concord, Calif.) and photographed under a light microscope at ×4.0 and ×20 magnification. Tracheal morphometric analysis was performed using a computer-based image analysis system consisting of a Nikon Eclipse E800 microscope (Melville, N.Y. USA) with a SPOT RT Slider camera (Diagnostic Instruments, Inc., Sterling Heights, Mich. USA).

[2] = tested on: mouse tracheal epithelium cells (MTEC); assay: Nitrite in MTEC supernatants, Griess reaction; assay type: cell-based; conditions: PBS, 0.1 ng/mL LPS or 100 nM rFIZZ1; any measured time point; N=3
Protocol: MTEC culture was performed by following the protocol of You et al. (“Growth and differentiation of mouse tracheal epithelial cells: selection of a proliferative population,” Am J Physiol Lung Cell Mol Physiol, 2002, 283:L 1315-1321) with minor modification. Briefly, tracheas were incubated in 1.5 mg/mL pronase (Roche Molecular Biochemicals) for 18 h at 4° C. Cells were treated with 0.5 mg/mL crude pancreatic DNase I (Sigma-Aldrich) on ice for 5 min. After incubation in tissue culture plates for 3-4 h in 5% CO2 at 37° C., nonadherent cells were incubated in a plate coated with type I rat tail collagen (BD Biosciences) in modified BEBM (Lonza, Md. USA) containing 10 μg/ml insulin, 5 μg/ml transferrin, 25 ng/ml epidermal growth factor, 5 μg/ml epinephrine and 30 μg/ml bovine pituitary extract, 0.5 nM Hydrocortisone, 25 ng/ml hEGF, 15 nM Triiodothyronine, 0.25 μg/ml Gentamicin/amphotericin-B and 0.01 μM retinoic acid in 5% CO2 at 37° C. […]
Nitric oxide (NO) was examined by measuring an end product, nitrite, using the Griess reaction (Xu et al., “Arginase and autoimmune inflammation in the central nervous system,” Immunology, 2003; 110:141-148). […] Absorbance was read at 540 nm in an automated microplate reader. […]

[3] = tested on: tracheal smooth muscle (TSM) of mouse tracheal rings; assay: ISO-induced relaxation of CCh-contracted tracheal rings; assay type: cell-based; conditions: normalized to 200 μM papaverine, PBS 46.29±2.85, n=6
Protocol: (§1) Experimental animals were sacrificed by CO2 asphyxiation. Tracheas were surgically excised and cleaned of adherent connective tissue. Each trachea was sectioned into rings 3-4 mm in length and cultured in DMEM containing 1.0 M HEPES, 1.0 M NaOH, 5% of heat-inactivated FBS (Hy-Clone, Logan, Utah), 0.2M glutamine, 1.0 M CaCl2, 2.5 μg/ml fungizone, 5 μg/mL insulin, 100 U/mL penicillin and 100 μg/mL streptomycin) (DMEM-5%) for 24 hours. For in vitro experiments, the tracheal rings were cultured in DMEM in the absence and presence of either 10 or 100 nM recombinant FIZZ1 (Leinco Technologies, USA) for 24 hours.
(§2) Trachea were supported longitudinally by a plexiglas rod with a stainless steel pin into the base of a double-jacketed, glass organ bath filled with 10 mL of Krebs-Henseleit (K-H) solution (37° C.) of the following composition: 118 mM NaCl; 4.7 mM KCl; 1.2 mM KH2PO4; 11.1 mM Dextrose; 1.2 mM MgSO4; 2.8 mM CaCl2; and 25 mM NaHCO3. The solution was maintained at a pH of 7.40-7.45 and continuously gassed with a mixture of 5% CO2 and […] for the duration of each experiment. […] Initial tensions of TSM were set at approximately 0.5 g and maintained for 1 hour. Agonists were given after a steady state of tension had been reached.
[CCh]-response curves at the doses ranging from 3×10^−8 to 10^−5 M were completed in tracheal rings in absence and presence of either FIZZ1 or LPS (0.1 ng/mL). Concentrations of agonist were increased only when force responses to the previous concentration had stabilized. To examine TSM relaxant responses to isoprenaline (ISO), tracheal rings were first contracted by an addition of 1.0 μM CCh (Sigma, USA). Once the contraction had stabilized, ISO (Sigma, USA) was introduced into each bath at increasing concentrations (3×10^−8-10^−5 M). […]
At the end of each force measurement experiment, tracheas were blotted on a gauze pad and weighted. Results were calculated as milligram of tension per milligram of TSM weight (mg/mg) and expressed as an individual percentage (%) of 10 μM CCh- or 200 μM papaverine-induced tension response in PBS-treated trachea. […]

[4] = tested on: tracheal smooth muscle (TSM) of mouse tracheal rings; assay: CCh-evoked force generation in cultured tracheal rings; assay type: cell-based; conditions: for Maximal tensions (%), CCh-evoked force generation: PBS-treated rings 100±8.39; for TSM sensitivity to CCh, LogEC50: Mean ± SE, N=6
Protocol: as §1, §2
[CCh]-response curves at the doses ranging from 3×10^−8 to 10^−5 M were completed in tracheal rings in absence and presence of either FIZZ1 or LPS (0.1 ng/mL). Concentrations of agonist were increased only when force responses to the previous concentration had stabilized. To examine TSM relaxant responses to isoprenaline (ISO), tracheal rings were first contracted by an addition of 1.0 μM CCh (Sigma, USA). Once the contraction had stabilized, ISO (Sigma, USA) was introduced into each bath at increasing concentrations (3×10^−8-10^−5 M). […] In an additional experiment, the effect of FIZZ1 protein on the CCh-mediated force response was verified using 100 nM heat-inactivated FIZZ1 (natural and recombinant FIZZ1 solution heated at 70° C. for 60 min). Their dose-response curves were obtained as above. Fresh drug solutions such as CCh and ISO were made up on the day of the experiment. Doses of the above agents refer to the final bath concentration.
At the end of each force measurement experiment, tracheas were blotted on a gauze pad and weighted. Results were calculated as milligram of tension per milligram of TSM weight (mg/mg) and expressed as an individual percentage (%) of 10 μM CCh- or 200 μM papaverine-induced tension response in PBS-treated trachea. For the control group, CCh (papaverine)-mediated responses were normalized to the mean value of the maximal responses.

B1: rFIZZ1: recombinant FIZZ1 (Leinco Technologies), mouse FIZZ1 protein, resistin-like molecule-α (protein, listed as Mus musculus)
chain: MKTTTCSLLICISLLQLMVPVNTDETIEIIVENKVKELLANIPANYPSTVTKTLSCTSVKTMNRWASCPAGMTATGCACGFACGSWEIQSGDTCNCLCLLV
modifications: (1)..(101) Murine FIZZ1 polypeptide
- smooth muscle layers, histology [1]: clear and histologically intact
- epithelial layer of tracheal rings, histology ([1]; vs PBS): thinner and some of airway epithelium was denuded
- changes in nitrite concentration in MTEC supernatants [2]: not obvious
- maximal relaxing force (%), ISO-induced ([3]; 10 nM rFIZZ1 pretreatment): 46.52±2.80%
- maximal relaxing force (%), ISO-induced ([3]; 100 nM rFIZZ1 pretreatment): 43.38±0.75%
- Maximal tensions (%), CCh-evoked force generation ([4]; 10 nM rFIZZ1, cultured 24 hours, n=6): 117.21±7.87%
- Maximal tensions (%), CCh-evoked force generation ([4]; 100 nM rFIZZ1, cultured 24 hours, n=6): 144.16±15.77%
- maximal responses (%) of the tracheal rings, CCh-evoked ([4]; FIG. 4B, 100 nM heat-inactivated or native rFIZZ1, 0.1 ng/mL LPS, PBS 100±4.82, n=6): 135.67±9.02%
- TSM sensitivity to CCh, LogEC50 ([4]; trachea treated with FIZZ1 10 nM): −0.96 ± 0.05 μM
- TSM sensitivity to CCh, LogEC50 ([4]; trachea treated with FIZZ1 100 nM): −0.99 ± 0.03 μM
